T1: tyrosine phosphorylated β-catenin (Homo sapiens, UniProt P35222)
T1 construct: expressed in transfected cells; host or cells: human 293 embryonic kidney cells, transient; CMV-promoter vector; immunoprecipitated with anti-β-catenin antibody
T1 sequence (P35222 1-781): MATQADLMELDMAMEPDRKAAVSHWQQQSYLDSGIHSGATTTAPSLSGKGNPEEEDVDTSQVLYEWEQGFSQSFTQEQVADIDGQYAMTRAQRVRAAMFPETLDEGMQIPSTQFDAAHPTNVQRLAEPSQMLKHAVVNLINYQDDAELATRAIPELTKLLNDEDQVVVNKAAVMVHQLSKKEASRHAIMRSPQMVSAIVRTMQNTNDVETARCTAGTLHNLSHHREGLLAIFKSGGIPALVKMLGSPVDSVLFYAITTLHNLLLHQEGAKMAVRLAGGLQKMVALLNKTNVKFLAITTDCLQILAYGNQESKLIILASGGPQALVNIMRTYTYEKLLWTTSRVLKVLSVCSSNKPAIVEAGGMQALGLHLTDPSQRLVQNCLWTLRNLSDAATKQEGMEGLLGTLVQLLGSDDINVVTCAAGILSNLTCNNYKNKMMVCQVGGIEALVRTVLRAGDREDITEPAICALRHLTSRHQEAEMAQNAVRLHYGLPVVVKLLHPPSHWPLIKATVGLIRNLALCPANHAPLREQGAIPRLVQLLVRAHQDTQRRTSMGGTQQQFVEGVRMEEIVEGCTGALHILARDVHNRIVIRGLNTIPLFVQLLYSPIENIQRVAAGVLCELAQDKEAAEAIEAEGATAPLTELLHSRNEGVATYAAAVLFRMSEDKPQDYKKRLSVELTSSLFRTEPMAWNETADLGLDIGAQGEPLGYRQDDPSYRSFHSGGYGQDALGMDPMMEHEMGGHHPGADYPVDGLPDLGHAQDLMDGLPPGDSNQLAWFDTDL


Biological target: T1, tyrosine phosphorylated β-catenin
Assay: In vitro dephosphorylation assay
Format: biochemical
Settings: 200 ng GST fusion protein, 25° C.; within the first five minutes; anti-phosphotyrosine Western blot
Method: After 24 h of serum starvation, the cells were stimulated with pervanadate before lysis. β-catenin was subsequently immunoprecipitated with an anti-β-catenin antibody, and precipitates were incubated for the indicated time intervals with GST-PTP LAR cytoplasmic fusion protein (left), GST-PTP LAR PTP D1 C1522S-mutant (middle) or GST-PTP LAR PTP D2 C1813S-mutant (right). Reactions were terminated after the indicated periods of time, and proteins were separated by SDS-PAGE. Tyrosine phosphorylation levels of […] were analyzed by Western blotting with an anti-phosphotyrosine antibody (top). […] Arrows indicate the proteins of interest.
In Vitro Dephosphorylation Assay—β-catenin was transiently overexpressed in human 293 embryonic kidney cells. Cells were serum-starved, treated with pervanadate ([…]/0.1 mM Na-orthovanadate) for 10 minutes and lysed. Immunoprecipitations were performed as described above except that HNTG without pyrophosphate, ammonium-molybdate, and Na-orthovanadate was used. PTP activity towards tyrosine phosphorylated β-catenin was assayed in 200 μL reactions at 25° C. containing 25 mM HEPES, pH 7.5, 5 mM EDTA, 10 mM DTT, and 1 mg/mL BSA with 200 ng of GST-hPTP LAR cytoplasmic, GST-hPTP LAR D1 C1522S, or GST-hPTP LAR D2 C1813S added. Reactions were stopped by washing with HNTG and subsequently separated by SDS-PAGE. The tyrosine phosphorylation status was analyzed by Western blotting using anti-phosphotyrosine antibody.
The association of β-catenin and plakoglobin with PTP LAR prompted the investigation of whether these proteins could represent actual substrates for PTP LAR. […] After different time intervals, the reactions were terminated and analyzed with an anti-phosphotyrosine specific antibody.

Molecule	tyrosine phosphorylation signal of β-catenin
GST-PTP LAR PTP D2 C1813S: GST fusion of PTP LAR cytoplasmic domain with inactivated PTP domain 2 (protein) KRKRTHSPSSKDEQSIGLKDSLLAHSSDPVEMRRLNYQTPGMRDHPPIPITDLADNIERLKANDGLKFSQEYESIDPGQQFTWENSNLEVNKPKNRYANVIAYDHSRVILTSIDGVPGSDYINANYIDGYRKQNAYIATQGPLPETMGDFWRMVWEQRTATVVMMTRLEEKSRVKCDQYWPARGTETCGLIQVTLLDTVELATYTVRTFALHKSGSSEKRELRQFQFMAWPDHGVPEYPTPILAFLRRVKACNPLDAGPMVVHCSAGVGRTGCFIVIDAMLERMKHEKTVDIYGHVTCMRSQRNYMVQTEDQYVFIHEALLEAATCGHTEVPARNLYAHIQKLGQVPPGESVTAMELEFKLLASSKAHTSRFISANLPCNKFKNRLVNIMPYELTRVCLQPIRGVEGSDYINASFLDGYRQQKAYIATQGPLAESTEDFWRMLWEHNSTIIVMLTKLREMGREKCHQYWPAERSARYQYFVVDPMAEYNMPQYILREFKVTDARDGQSRTIRQFQFTDWPEQGVPKTGEGFIDFIGQVHKTKEQFGQDGPITVHCSAGVGRTGVFITLSIVLERMRYEGVVDMFQTVKTLRTQRPAMVQTEDQYQLCYRAALEYLGSFDHYAT	significant reduction in the tyrosine phosphorylation signal
GST-PTP LAR PTP D1 C1522S: GST fusion of PTP LAR cytoplasmic domain with catalytically inactivated PTP domain 1 (protein) KRKRTHSPSSKDEQSIGLKDSLLAHSSDPVEMRRLNYQTPGMRDHPPIPITDLADNIERLKANDGLKFSQEYESIDPGQQFTWENSNLEVNKPKNRYANVIAYDHSRVILTSIDGVPGSDYINANYIDGYRKQNAYIATQGPLPETMGDFWRMVWEQRTATVVMMTRLEEKSRVKCDQYWPARGTETCGLIQVTLLDTVELATYTVRTFALHKSGSSEKRELRQFQFMAWPDHGVPEYPTPILAFLRRVKACNPLDAGPMVVHCSAGVGRTGCFIVIDAMLERMKHEKTVDIYGHVTCMRSQRNYMVQTEDQYVFIHEALLEAATCGHTEVPARNLYAHIQKLGQVPPGESVTAMELEFKLLASSKAHTSRFISANLPCNKFKNRLVNIMPYELTRVCLQPIRGVEGSDYINASFLDGYRQQKAYIATQGPLAESTEDFWRMLWEHNSTIIVMLTKLREMGREKCHQYWPAERSARYQYFVVDPMAEYNMPQYILREFKVTDARDGQSRTIRQFQFTDWPEQGVPKTGEGFIDFIGQVHKTKEQFGQDGPITVHCSAGVGRTGVFITLSIVLERMRYEGVVDMFQTVKTLRTQRPAMVQTEDQYQLCYRAALEYLGSFDHYAT	No change in phosphorylation levels

Source: US20090074722A1, “Products and methods for treating PTP lar diseases” (MAX-PLANCK-GESELLSCHAFT ZUR, priority 1999, published 2009)
